{"source": "paper PMC3396760", "experiment": "in-culture cell surface labelling with cell-impermeable BG-682", "details": "glycan lost; control: wild type SNAP-Crb3a", "data": [{"protein": "Crumbs3a (Crb3a): N36D (protein) parent chain: MANPGLGLLLALGLPFLLARWGRAWGQIQTTSANENSTVLPSSTSSSSDGNLRPEAITAIIVVFSLLAALLLAVGLALLVRKLREKRQTEGTYRPSSEEQVGARVPPTPNLKLPPEERLI", "values": [{"measurement": "localisation_or_trafficking", "result": "no change"}]}]}
